Results published in the supplement of paper PMC9732359.
± gives the uncertainty stated by the source.

Assay: protein stability index of a GFP-peptide fusion (yeast GPS) (PSI 1-4); higher = more stable; sorted into four equal gates, so the index is relative within each strain
In short: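 For each peptide, the protein stability index sums the read frequency in every gate after multiplying it by the gate number. Read frequencies came from plasmids that were PCR-amplified from each gate and Illumina-sequenced, with reads assigned to strains by barcodes. The gates were four equal bins of GFP/Cherry fluorescence ratio applied to mid-log yeast in leucine-free medium carrying a pooled library of tiled 17-residue yeast protein peptides fused downstream of GFP on a Cherry-expressing plasmid.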

HMISQEGIKETQAKRIF [SWI1]
protein stability index (doa10∆): 3.1 ± 0.17 | protein stability index (pdr5∆): 3.53 ± 0.21 | protein stability index (san1∆): 3.19 ± 0.11 | protein stability index (ubr1∆): 3.22 ± 0.13

VLHVSAKGKSGVQTAYI [RRP40]
protein stability index (doa10∆): 2.48 ± 0.23 | protein stability index (ubr1∆): 2.91 ± 0.24

LGSSEAENLLQLKTGLA [YGL172W/NUP49]
protein stability index (pdr5∆): 3.29 ± 0.18 | protein stability index (san1∆): 2.98 ± 0.085 | protein stability index (ubr1∆): 2.5 ± 0.2

IDADSLEDIYTSAHEAI [RPL5]
protein stability index (doa10∆): 2.98 ± 0.097 | protein stability index (pdr5∆): 3.02 ± 0.11 | protein stability index (san1∆): 2.9 ± 0.1 | protein stability index (ubr1∆): 3.13 ± 0.056

VSKFYDKINQLSVVKYL [RPN9]
protein stability index (doa10∆): 2.25 ± 0.12 | protein stability index (pdr5∆): 1.75 ± 0.083 | protein stability index (san1∆): 1.31 ± 0.11 | protein stability index (ubr1∆): 1.7 ± 0.083

VGGHNVTIREQINIMPS [SIR3]
protein stability index (doa10∆): 2.91 ± 0.069 | protein stability index (pdr5∆): 2.8 ± 0.066 | protein stability index (san1∆): 2.71 ± 0.071 | protein stability index (ubr1∆): 2.94 ± 0.067

LSKINAIQLDYSTANEY [RPN3]
protein stability index (doa10∆): 3.13 ± 0.084 | protein stability index (pdr5∆): 2.15 ± 0.066 | protein stability index (san1∆): 3.17 ± 0.085 | protein stability index (ubr1∆): 3.06 ± 0.062

EKKQKTESQDVETRVQN [DPB4]
protein stability index (doa10∆): 3.52 ± 0.11 | protein stability index (pdr5∆): 3.38 ± 0.072 | protein stability index (san1∆): 3.35 ± 0.048 | protein stability index (ubr1∆): 3.3 ± 0.056

GTPKTDSFIFDGTAKEV [MED4]
protein stability index (doa10∆): 2.32 ± 0.041 | protein stability index (pdr5∆): 2.43 ± 0.046 | protein stability index (san1∆): 2.58 ± 0.071 | protein stability index (ubr1∆): 2.65 ± 0.045

IKIEPSADDDVNNGNIP [SIR3]
protein stability index (doa10∆): 2.12 ± 0.098 | protein stability index (pdr5∆): 2.44 ± 0.14 | protein stability index (san1∆): 2.58 ± 0.15 | protein stability index (ubr1∆): 2.76 ± 0.13

NGVVIATEKKSSSPLAM [PRE8]
protein stability index (doa10∆): 2.91 ± 0.19 | protein stability index (pdr5∆): 3 ± 0.17 | protein stability index (san1∆): 2.55 ± 0.26 | protein stability index (ubr1∆): 3.07 ± 0.11

KNEETPQNEKPPAYALL [RPC25]
protein stability index (doa10∆): 2.27 ± 0.23 | protein stability index (san1∆): 2.05 ± 0.14 | protein stability index (ubr1∆): 2.74 ± 0.24

ATADTTHLHEALDIVCS [NUT1]
protein stability index (doa10∆): 2.12 ± 0.056 | protein stability index (pdr5∆): 2.55 ± 0.063 | protein stability index (san1∆): 2.48 ± 0.12 | protein stability index (ubr1∆): 2.69 ± 0.041

PCLSRSCTKCPQIVVPD [DIS3]
protein stability index (doa10∆): 2.42 ± 0.034 | protein stability index (pdr5∆): 2.56 ± 0.031 | protein stability index (san1∆): 2.63 ± 0.033 | protein stability index (ubr1∆): 2.57 ± 0.03

ATQKESLEMVPKDTSAA [RGR1]
protein stability index (doa10∆): 3.25 ± 0.087 | protein stability index (pdr5∆): 3.25 ± 0.07 | protein stability index (san1∆): 3.09 ± 0.055 | protein stability index (ubr1∆): 3.17 ± 0.05

TIEKDKMKIQETISKLN [SMC2]
protein stability index (doa10∆): 1.71 ± 0.058 | protein stability index (pdr5∆): 1.69 ± 0.044 | protein stability index (san1∆): 1.94 ± 0.12 | protein stability index (ubr1∆): 1.53 ± 0.038

TDAMTESQPKQTGTRRN [MCD1]
protein stability index (doa10∆): 3.04 ± 0.12 | protein stability index (pdr5∆): 3.35 ± 0.12 | protein stability index (san1∆): 3.2 ± 0.068 | protein stability index (ubr1∆): 3.09 ± 0.061

STTQEILEFITAAQVAN [RPC34]
protein stability index (doa10∆): 2.65 ± 0.1 | protein stability index (pdr5∆): 1.71 ± 0.056 | protein stability index (san1∆): 1.9 ± 0.088 | protein stability index (ubr1∆): 1.19 ± 0.048

KRFNIGADPNYRTYSER [RPR2]
protein stability index (doa10∆): 3.08 ± 0.15 | protein stability index (pdr5∆): 3.4 ± 0.14 | protein stability index (san1∆): 2.89 ± 0.28 | protein stability index (ubr1∆): 3.35 ± 0.11

MTEHETKDKAKKIREIY [BRR2]
protein stability index (doa10∆): 2.6 ± 0.17 | protein stability index (pdr5∆): 2.69 ± 0.11 | protein stability index (san1∆): 2.27 ± 0.18 | protein stability index (ubr1∆): 2.35 ± 0.1

DIEFINSLLTIVWRFIS [RPC34]
protein stability index (pdr5∆): 2.91 ± 0.23 | protein stability index (san1∆): 2.51 ± 0.21 | protein stability index (ubr1∆): 2.12 ± 0.14

EEEIKKFDSRIRGILMA [PRP8]
protein stability index (doa10∆): 2.71 ± 0.066 | protein stability index (pdr5∆): 2.81 ± 0.074 | protein stability index (san1∆): 2.69 ± 0.052 | protein stability index (ubr1∆): 3.02 ± 0.051

ETIIEADKSLPSSMATL [YJR042W/NUP85]
protein stability index (doa10∆): 2.75 ± 0.083 | protein stability index (pdr5∆): 2.85 ± 0.061 | protein stability index (san1∆): 3 ± 0.046 | protein stability index (ubr1∆): 2.91 ± 0.055

ELHKEGTISKLENKENG [SMC2]
protein stability index (doa10∆): 2.01 ± 0.12 | protein stability index (pdr5∆): 2.61 ± 0.097 | protein stability index (san1∆): 1.4 ± 0.076 | protein stability index (ubr1∆): 1.62 ± 0.075

IYRGVLNDENSDDYDNE [SMC1]
protein stability index (doa10∆): 3.19 ± 0.24 | protein stability index (pdr5∆): 3.41 ± 0.15 | protein stability index (san1∆): 3.21 ± 0.24 | protein stability index (ubr1∆): 3.42 ± 0.14

GKASLFAQGKRRYDRKQ [RPL42A]
protein stability index (doa10∆): 3.28 ± 0.11 | protein stability index (pdr5∆): 3.09 ± 0.1 | protein stability index (san1∆): 3.4 ± 0.088 | protein stability index (ubr1∆): 3.4 ± 0.072

TNFNEITNTDETITTKR [SWP82]
protein stability index (doa10∆): 3.13 ± 0.058 | protein stability index (pdr5∆): 3.25 ± 0.061 | protein stability index (san1∆): 3.08 ± 0.067 | protein stability index (ubr1∆): 3.32 ± 0.045

LHDTQIEGKLHMATALQ [RPN10]
protein stability index (doa10∆): 2.48 ± 0.22 | protein stability index (pdr5∆): 2.37 ± 0.2 | protein stability index (ubr1∆): 2.38 ± 0.23

RDLSEASVYPEYALPKT [RPS26A]
protein stability index (doa10∆): 3.11 ± 0.078 | protein stability index (pdr5∆): 3.01 ± 0.067 | protein stability index (san1∆): 3.16 ± 0.045 | protein stability index (ubr1∆): 3.09 ± 0.034

ESSINTHPHAADGSSYM [SKI6]
protein stability index (doa10∆): 2.98 ± 0.047 | protein stability index (pdr5∆): 3.22 ± 0.039 | protein stability index (san1∆): 3 ± 0.035 | protein stability index (ubr1∆): 3.05 ± 0.036

DKEKEENNDDALDLDLD [MED4]
protein stability index (doa10∆): 2.92 ± 0.072 | protein stability index (pdr5∆): 3.12 ± 0.095 | protein stability index (san1∆): 2.95 ± 0.063 | protein stability index (ubr1∆): 3.16 ± 0.054

GETMWVPIKSSKSGRIF [RPN13]
protein stability index (doa10∆): 2.3 ± 0.11 | protein stability index (pdr5∆): 2.6 ± 0.15 | protein stability index (san1∆): 2.81 ± 0.068

TCDEIQNFENDFSLRYI [REC8]
protein stability index (doa10∆): 2.52 ± 0.14 | protein stability index (pdr5∆): 2.12 ± 0.28 | protein stability index (san1∆): 3.35 ± 0.15 | protein stability index (ubr1∆): 2.88 ± 0.28

QQQDQPEQSEQPEQHQD [RPN10]
protein stability index (doa10∆): 3 ± 0.052 | protein stability index (pdr5∆): 3.12 ± 0.053 | protein stability index (san1∆): 2.85 ± 0.046 | protein stability index (ubr1∆): 3.24 ± 0.059

NGGDKELEMIGGTNEDD [YCS4]
protein stability index (doa10∆): 3.25 ± 0.22 | protein stability index (pdr5∆): 2.79 ± 0.21 | protein stability index (san1∆): 2.46 ± 0.22 | protein stability index (ubr1∆): 3.05 ± 0.27

LVEVEDEKIEAIKKKEK [SRB7]
protein stability index (doa10∆): 2.57 ± 0.16 | protein stability index (pdr5∆): 3.09 ± 0.16 | protein stability index (san1∆): 3.05 ± 0.094 | protein stability index (ubr1∆): 3.39 ± 0.17

QVVGPFHTSFSAVVGPN [SMC4]
protein stability index (doa10∆): 2.53 ± 0.063 | protein stability index (pdr5∆): 2.39 ± 0.055 | protein stability index (san1∆): 2.78 ± 0.055 | protein stability index (ubr1∆): 2.73 ± 0.037

IPSLANNGNNSTSIQYH [POP6]
protein stability index (doa10∆): 2.45 ± 0.054 | protein stability index (pdr5∆): 2.95 ± 0.06 | protein stability index (san1∆): 2.47 ± 0.066 | protein stability index (ubr1∆): 2.59 ± 0.046

FDFLDDGTAQLSNNKTD [YJR042W/NUP85]
protein stability index (doa10∆): 3.38 ± 0.23 | protein stability index (pdr5∆): 3.52 ± 0.21 | protein stability index (san1∆): 3.5 ± 0.099 | protein stability index (ubr1∆): 3.39 ± 0.12

AERDSQGGFYKQQDAEE [UBP6]
protein stability index (doa10∆): 3.35 ± 0.08 | protein stability index (pdr5∆): 3.38 ± 0.089 | protein stability index (san1∆): 3.07 ± 0.077 | protein stability index (ubr1∆): 3.28 ± 0.055

MAKDIEISASESKFILE [RRP45]
protein stability index (doa10∆): 3.17 ± 0.092 | protein stability index (pdr5∆): 3.06 ± 0.14 | protein stability index (san1∆): 2.99 ± 0.064 | protein stability index (ubr1∆): 3.02 ± 0.093

SVAEVFQKAQGSYAGHR [YCG1]
protein stability index (doa10∆): 1.9 ± 0.11 | protein stability index (pdr5∆): 1.38 ± 0.18 | protein stability index (san1∆): 1.65 ± 0.24 | protein stability index (ubr1∆): 1.5 ± 0.072

EGLDLLKLCVQELEKRM [PRE1]
protein stability index (doa10∆): 2.04 ± 0.095 | protein stability index (pdr5∆): 2.32 ± 0.076 | protein stability index (san1∆): 2.19 ± 0.16 | protein stability index (ubr1∆): 2.06 ± 0.059

TTSLNPIQSKVFHAAFE [BRR2]
protein stability index (doa10∆): 2.65 ± 0.062 | protein stability index (pdr5∆): 2.56 ± 0.071 | protein stability index (san1∆): 2.08 ± 0.11 | protein stability index (ubr1∆): 2.85 ± 0.052

SRKAHGLNAKQLYKARM [POP1]
protein stability index (doa10∆): 3.03 ± 0.094 | protein stability index (pdr5∆): 3.4 ± 0.12 | protein stability index (san1∆): 2.96 ± 0.05 | protein stability index (ubr1∆): 2.83 ± 0.034

FALIDYFYDLDVLKDGE [BRN1]
protein stability index (doa10∆): 2.86 ± 0.049 | protein stability index (pdr5∆): 2.76 ± 0.057 | protein stability index (san1∆): 3.04 ± 0.061 | protein stability index (ubr1∆): 2.79 ± 0.049

QGEVGAVFIVPKILIRE [SWP82]
protein stability index (doa10∆): 2.03 ± 0.14 | protein stability index (pdr5∆): 2.36 ± 0.21 | protein stability index (san1∆): 1.69 ± 0.15 | protein stability index (ubr1∆): 2.13 ± 0.2

IKKVICGAWEPAITIEK [SIR3]
protein stability index (doa10∆): 2.15 ± 0.094 | protein stability index (pdr5∆): 2.45 ± 0.087 | protein stability index (san1∆): 2.47 ± 0.1 | protein stability index (ubr1∆): 2.58 ± 0.084

LPKFLTVQYVRFFWKRS [UBP6]
protein stability index (doa10∆): 1.62 ± 0.04 | protein stability index (pdr5∆): 1.35 ± 0.035 | protein stability index (san1∆): 1.24 ± 0.085 | protein stability index (ubr1∆): 1.19 ± 0.032

KTHRGLRKVACIGAWHP [RPL3]
protein stability index (doa10∆): 1.41 ± 0.064 | protein stability index (pdr5∆): 3.19 ± 0.12 | protein stability index (san1∆): 2.23 ± 0.087 | protein stability index (ubr1∆): 2.92 ± 0.076

LSEEKEVIFTDVLKSQA [MCD1]
protein stability index (doa10∆): 2.92 ± 0.2 | protein stability index (pdr5∆): 3.09 ± 0.23 | protein stability index (san1∆): 3.13 ± 0.12 | protein stability index (ubr1∆): 2.77 ± 0.17
